According to US9872893B2, “Endolysins active against Staphylococcus bacteria, pharmaceutical compositions, and methods relating thereto” (priority 2014, dated 2018):

Key:
[1] = system: Staphylococcus aureus, NRS-71; assay: plate lysis assay (spectrum of lytic activity); format: cell-based; design: key to strength of lytic zone: strong lytic zone = ++; weak lytic zone = +; no lytic zone = −; details: 6 μg
Experimental: (§1) The PlyGRCS spectrum of lytic activity was performed (Schmelcher M et al. (2012) Chimeric phage lysins act synergistically with lysostaphin to kill mastitis-causing Staphylococcus aureus in murine mammary glands. Appl Environ Microbiol 78(7):2297-305) with minor modifications. Bacterial cells were diluted in sterile PBS to an OD600=1, and 100 μl was spread on each plate. 10 μl spots (600 μg/ml) of PlyGRCS or CHAPGRCS were applied. Plates were incubated overnight at 37° C. Strength of lytic zones was defined qualitatively.

[2] = system: Staphylococcus aureus, NRS-384; assay: plate lysis assay (spectrum of lytic activity); format: cell-based; design: key to strength of lytic zone: strong lytic zone = ++; weak lytic zone = +; no lytic zone = −; details: 6 μg
Experimental: as §1

[3] = system: Staphylococcus aureus, NRS-14; assay: plate lysis assay (spectrum of lytic activity); format: cell-based; design: key to strength of lytic zone: strong lytic zone = ++; weak lytic zone = +; no lytic zone = −; details: 6 μg; S. aureus NRS-14, VISA
Experimental: as §1

[4] = system: Staphylococcus epidermidis, NRS-101; assay: plate lysis assay (spectrum of lytic activity); format: cell-based; design: key to strength of lytic zone: strong lytic zone = ++; weak lytic zone = +; no lytic zone = −; details: 6 μg
Experimental: as §1

[5] = system: Streptococcus pyogenes, D471; assay: plate lysis assay (spectrum of lytic activity); format: cell-based; design: key: strong lytic zone = ++; weak lytic zone = +; no lytic zone = −; details: 6 μg
Experimental: as §1

[6] = system: Staphylococcus aureus, NRS-382; assay: plate lysis assay (spectrum of lytic activity); format: cell-based; design: key: strong lytic zone = ++; weak lytic zone = +; no lytic zone = −; details: 6 μg; S. aureus NRS-382, MRSA
Experimental: as §1

Bacillus pumulis, BJ0055 = assay: plate lysis assay (spectrum of lytic activity); format: cell-based; design: key: strong lytic zone = ++; weak lytic zone = +; no lytic zone = −; details: 6 μg
Experimental: as §1

[7] = system: Streptococcus uberis, ATCC 700407; assay: plate lysis assay (spectrum of lytic activity); format: cell-based; design: key: strong lytic zone = ++; weak lytic zone = +; no lytic zone = −; details: 6 μg
Experimental: as §1

[8] = system: Streptococcus suis, 730082; assay: plate lysis assay (spectrum of lytic activity); format: cell-based; design: key: strong lytic zone = ++; weak lytic zone = +; no lytic zone = −; details: 6 μg
Experimental: as §1

[9] = system: Staphylococcus aureus, NRS-385; assay: plate lysis assay (spectrum of lytic activity); format: cell-based; design: key: strong lytic zone = ++; weak lytic zone = +; no lytic zone = −; details: 6 μg; S. aureus NRS-385, MRSA
Experimental: as §1

[10] = system: Streptococcus pneumoniae, ATCC BAA-334; assay: plate lysis assay (spectrum of lytic activity); format: cell-based; design: key: strong lytic zone = ++; weak lytic zone = +; no lytic zone = −; details: 6 μg
Experimental: as §1

[11] = system: Enterococcus facealis, EF24; assay: plate lysis assay (spectrum of lytic activity); format: cell-based; design: key: strong lytic zone = ++; weak lytic zone = +; no lytic zone = −; details: 6 μg
Experimental: as §1

[12] = system: Streptococcus equi, ATCC 9528; assay: plate lysis assay (spectrum of lytic activity); format: cell-based; design: key: strong lytic zone = ++; weak lytic zone = +; no lytic zone = −; details: 6 μg
Experimental: as §1

[13] = circular dichroism melting experiments; format: physicochemical; details: 0.1 mg/ml, 20 mM sodium phosphate buffer pH 7, 20-95° C. at 1° C./min
Experimental: CD experiments for wild-type (WT) and active-site mutants were performed on a Chirascan CD spectrometer (Applied Photophysics) equipped with a thermoelectrically controlled cell holder. CD spectra were obtained in the far-UV range (190-260 nm) in a 1 mm path length quartz cuvette at 1 nm steps with 5 second signal averaging per data point. Spectra were collected in triplicate, followed by averaging, baseline subtraction, smoothing and conversion to mean residue ellipticity (MRE) by the Pro-Data software (Applied Photophysics). Secondary structure prediction was performed using the Provencher and Glockner method (Provencher S W & Glockner J (1981) Estimation of globular protein secondary structure from circular dichroism. Biochemistry 20(1):33-7) provided by DICHROWEB (Whitmore L & Wallace B A (2004) DICHROWEB, an online server for protein secondary structure analyses from circular dichroism spectroscopic data. Nucleic Acids Res 32:W668-73).
Melting experiments were performed by heating PlyGRCS at a 0.1 mg/ml concentration in 20 mM sodium phosphate buffer pH 7 from 20° C. to 95° C. using a 1° C./min heating rate. MRE was monitored at 218 nm in a 1 mm path length quartz cuvette at 0.5° C. steps with 5 second signal averaging per data point. The melting data was smoothed, normalized and fit with a Boltzmann sigmoidal curve. The first derivative of the melting curve was then taken to determine the temperature (Tm) at which the folded and unfolded protein species in solution were at equilibrium (Fallas J A & Hartgerink J D (2012) Computational design of self-assembling register-specific collagen heterotrimers. Nat Commun 3:1087).

[14] = system: stationary phase S. aureus NRS-14; assay: turbidity reduction assay (lytic activity); format: cell-based, Staphylococcus aureus; details: equimolar concentrations; for lytic activity (in words): isolated domain
Experimental: Lytic activity was based on turbidity reduction assay (Nelson D C et al. (2012) Endolysins as antimicrobials. Adv Virus Res 83:299-365). Briefly, bacterial cells were centrifuged (4,000 RPM, 5 minutes, 4° C.), re-suspended in buffer and mixed 1:1 (v/v) with endolysin to a final OD600=1. OD600 readings were taken every 15 seconds for 20 minutes at 37° C. Endolysin activity was equated to the Vmax dictated by the linear portion of the resulting killing curve. Each experiment was performed in triplicate.
To determine dose response, PlyGRCS was serially diluted and each dosage (100 μl) was added in triplicate to a 96-well polystyrene microtiter plate (Nest Biotech Co, Ltd) just before addition of bacterial cells (100 μl) according to the turbidity reduction assay described above. For optimum pH determination, bacterial cells were suspended in 40 mM boric acid/phosphoric acid (BP) buffer, pH 3-11, and were challenged against PlyGRCS. The influence of NaCl on PlyGRCS activity was tested in BP buffer at the experimentally determined pH optimum using the same assay. The effect of divalent cations was determined using the turbidity reduction assay with several modifications. First, PlyGRCS was incubated at room temperature in PBS or PBS supplemented with 5 mM EDTA for 10 minutes. Second, the EDTA-treated samples received either no further treatment, or were supplemented with 6 mM CaCl2 or 6 mM MgCl2. Finally, the lytic active of the samples was then immediately assayed and compared to PlyGRCS in PBS prior to EDTA inactivation. Kinetic stability was evaluated (Son B et al. (2012) Characterization of LysB4, an endolysin from the Bacillus cereus-infecting bacteriophage B4. BMC Microbiol 12:33) with minor modifications. Lytic assays were performed in optimal conditions after PlyGRCS was incubated at indicated temperatures for 30 minutes and subsequently recovered on ice for 5 minutes.

S. aureus NRS-14 = assay: cell wall binding by fluorescence microscopy; design: species or system Staphylococcus aureus; details: 10 μg, detected via anti-His antibody and AlexaFluor 488 secondary
Experimental: An overnight culture of S. aureus NRS-14 was concentrated 5× in BP buffer and was incubated at room temperature with 10 μg SH3_5GRCS containing the 6× His tag for 10 minutes. A control without SH3_5GRCS was also utilized. The samples were washed with PBS and incubated for 10 minutes at room temperature with 1 μl mouse anti-His antibody (Gen Script). After washing with PBS, AlexaFluor-488 conjugated goat anti-mouse IgG (H+L) antibody (1 μl) (Invitrogen) was incubated with samples for an additional 10 minutes. Samples were washed again with PBS before being visualized via fluorescence and bright field microscopy. An Eclipse 80i epifluorescent microscope workstation (Nikon) with X-Cite 120 illuminator (EXFO) and Retiga 2000R CCD camera was used. NIS-Elements software (Nikon) was used for image analysis.

B1: CHAPGRCS: PlyGRCS catalytic CHAP domain, amino acids 1-140, SEQ ID NO: 6 (protein)
chain: MKSQQQAKEWIYKHEGTGVDFDGAYGFQCMDLAVAYVYYITDGKVRMWGNAKDAINNDFKGLATVYENTPSFKPQLGDVAVYTNSQYGHIQCVISGNLDYYTCLEQNWLGGGFDGWEKATIRTHYYDGVTHFIRPKFSAS
modifications: Synthetically generated polypeptide (CHAPGRCS (amino acids 1-140))
lytic activity on plates (in words) ([1]; S. aureus NRS-71): relatively weak clearing zones | strength of lytic zone ([1]; S. aureus NRS-71, MRSA): + | lytic activity on plates (in words) ([2]; S. aureus NRS-384): relatively weak clearing zones | strength of lytic zone ([2]; S. aureus NRS-384, MRSA): + | strength of lytic zone [3]: − | lytic activity on plates (in words) ([4]; S. epidermidis NRS-101): relatively weak clearing zones | strength of lytic zone ([4]; S. epidermidis NRS-101, MRSE): + | strength of lytic zone [5]: − | strength of lytic zone [6]: − | strength of lytic zone (Bacillus pumulis, BJ0055): − | strength of lytic zone [7]: − | strength of lytic zone [8]: − | strength of lytic zone [9]: − | strength of lytic zone [10]: − | strength of lytic zone [11]: − | strength of lytic zone [12]: − | Tm [13]: 44.8 °C | lytic activity relative to full-length PlyGRCS [14]: 8-10% | lytic activity relative to full-length PlyGRCS ([14]; listed as CHAP domain): about 10%

B2: SH3_5GRCS: PlyGRCS cell wall binding SH3_5 domain, amino acids 150-250, SEQ ID NO: 7 (protein)
chain: NTFGNWKQNQYGTYYRNENATFTCGFLPIFARVGSPKLSEPNGYWFQPNGYTPYDEVCLSDGLVWIGYNWQGTRYYLPVRQWNGKTGNSYSIGLPWGVFS
modifications: Synthetically generated polypeptide (SH3_5GRCS (amino acids 150-250))
Tm [13]: 44.5 °C | binding to staphylococcal cell wall (S. aureus NRS-14): possessed the ability to specifically bind staphylococci | binding to staphylococcal cell wall (S. aureus NRS-14; listed as SH3_5 binding domain): interact directly with the staphylococcal cell wall | lytic activity (in words) [14]: little to no lytic activity | lytic activity (in words) ([14]; listed as SH3_5 binding domain): lacked activity
